# Target: esr1_human ESR1 (UniProt P03372)
# Sequence (P03372 whole entry): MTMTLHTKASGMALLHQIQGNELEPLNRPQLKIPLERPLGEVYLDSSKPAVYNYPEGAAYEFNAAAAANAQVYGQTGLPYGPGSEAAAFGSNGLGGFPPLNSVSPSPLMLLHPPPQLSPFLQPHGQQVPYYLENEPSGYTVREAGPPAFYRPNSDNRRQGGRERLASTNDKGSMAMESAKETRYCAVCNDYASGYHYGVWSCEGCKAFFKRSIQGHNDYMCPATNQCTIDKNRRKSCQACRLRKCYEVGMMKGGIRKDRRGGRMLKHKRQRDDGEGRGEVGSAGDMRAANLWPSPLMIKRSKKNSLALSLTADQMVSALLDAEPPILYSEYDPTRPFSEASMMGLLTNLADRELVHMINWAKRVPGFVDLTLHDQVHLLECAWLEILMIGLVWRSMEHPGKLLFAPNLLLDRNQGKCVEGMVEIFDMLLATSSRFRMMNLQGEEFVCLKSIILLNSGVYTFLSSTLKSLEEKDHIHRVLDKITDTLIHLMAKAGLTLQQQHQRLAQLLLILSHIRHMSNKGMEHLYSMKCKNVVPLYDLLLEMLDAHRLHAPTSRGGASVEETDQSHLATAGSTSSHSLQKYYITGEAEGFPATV
substance,measurement,value
"Nuclear receptor coactivator 2 (Homo sapiens), Q15596 L644A;L645A;L693A;L694A;L748A;L749A",effect of a mutation on the interaction,disrupting interaction
